Changes are numbered by the printed parent chain. Names and notes keep the numbering of the source. Values joined by “and” are separate entries in the source; they are usually repeats but may differ in a detail not shown here. Equal entries are not always repeated. One block for each binder: values may come before it.
Columns and labels:
[1] = molecular target: T1, mFc-hNKG2D (human, UniProt P26718 73-216); assay: SPR Biacore 8K 37 C; mFc-hNKG2D captured on anti-mFc chip, TriNKET as analyte; kinetics fit; average of 4
T1 construct: extracellular domain; Made in house (Dragonfly Tx); the order of tag and ECD follows the name mFc-hNKG2D; also called mFc-tagged human NKG2D; not shown: mouse Fc tag
T1 sequence (looked up): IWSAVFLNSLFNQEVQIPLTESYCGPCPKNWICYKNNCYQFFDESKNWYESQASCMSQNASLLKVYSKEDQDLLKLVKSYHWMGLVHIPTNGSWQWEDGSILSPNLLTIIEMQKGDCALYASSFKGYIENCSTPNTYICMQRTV

[2] = molecular target: T2, Human CLEC12A-His (human, UniProt Q5QGZ9 65-265); assay: SPR Biacore 8K 37 C; TriNKET captured on anti-hFc chip, hCLEC12A-His as analyte; 1:1 fit; pH 8.0 control, n=2
T2 construct: Recombinant soluble protein made in house (Dragonfly Tx); The hCLEC12A spot of the HuProt array is written under this molecule as well; also called hCLEC12A-His; hCLEC12A; not shown: His tag
T2 sequence: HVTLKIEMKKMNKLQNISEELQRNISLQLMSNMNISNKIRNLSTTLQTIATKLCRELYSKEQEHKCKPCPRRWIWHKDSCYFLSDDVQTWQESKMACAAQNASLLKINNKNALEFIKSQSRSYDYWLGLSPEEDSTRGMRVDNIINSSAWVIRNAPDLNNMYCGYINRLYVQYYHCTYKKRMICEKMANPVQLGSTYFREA

[3] = molecular target: T1, mFc-hNKG2D; assay: SPR Biacore 8K 37 C; mFc-hNKG2D captured on anti-mFc chip, TriNKET as analyte; 1:1 kinetic fit; pH 8.0 control
[4] = molecular target: T1, mFc-hNKG2D; assay: SPR Biacore 8K 37 C; mFc-hNKG2D captured on anti-mFc chip, TriNKET as analyte; 1:1 kinetic fit; after low pH hold, n=3
[5] = molecular target: T1, mFc-hNKG2D; assay: SPR Biacore 8K 37 C; mFc-hNKG2D captured on anti-mFc chip, TriNKET as analyte; 1:1 kinetic fit; after 4 wks 40 C in HST pH 6.0
[6] = molecular target: T3, mFc-hNKG2D (human, UniProt P26718 73-216); assay: SPR; sample after forced oxidation (0.02% H2O2, 24 h)
T3 construct: extracellular domain; Recombinant mFc-tagged NKG2D dimer, made in house; also called human NKG2D; not shown: mouse Fc tag
T3 sequence (looked up): T1 sequence (looked up)

[7] = molecular target: T4, Human CD16a V158 (human, UniProt P08637 17-208, biotinylated); assay: as above
T4 construct: Bought recombinant receptor; also called hCD16a (V158); hFcγRIIIa V158
T4 sequence (P08637 17-208 F176V limits assumed): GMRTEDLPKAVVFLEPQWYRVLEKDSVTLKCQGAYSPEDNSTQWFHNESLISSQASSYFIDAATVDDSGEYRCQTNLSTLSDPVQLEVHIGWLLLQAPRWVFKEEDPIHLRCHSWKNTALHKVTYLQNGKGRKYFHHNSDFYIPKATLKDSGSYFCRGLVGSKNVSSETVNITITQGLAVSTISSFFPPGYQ

[8] = molecular target: T5, Human CLEC12A expressed on cells (Ba/F3-hCLEC12A, PL21, HL60) (human, UniProt Q5QGZ9 1-265); assay: cell-based or functional assay
T5 sequence: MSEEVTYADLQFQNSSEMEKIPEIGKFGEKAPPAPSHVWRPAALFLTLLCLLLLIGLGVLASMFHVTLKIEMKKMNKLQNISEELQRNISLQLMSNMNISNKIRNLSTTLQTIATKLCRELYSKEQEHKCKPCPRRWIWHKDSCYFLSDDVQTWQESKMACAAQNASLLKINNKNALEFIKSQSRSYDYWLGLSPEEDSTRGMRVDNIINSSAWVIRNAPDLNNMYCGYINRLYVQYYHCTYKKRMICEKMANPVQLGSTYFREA

[9] = molecular target: T6, Human CLEC12A-His (recombinant, K244 WT) (human, UniProt Q5QGZ9 65-265); assay: SPR, two-state fit (ka1); control sample
T6 construct: Made in house (Dragonfly Tx); also called hCLEC12A; hCLEC12A-His; not shown: His tag
T6 sequence: T2 sequence

[10] = molecular target: T6, Human CLEC12A-His (recombinant, K244 WT); assay: SPR, untreated CLEC12A, two-state fit (ka1)
[11] = molecular target: T6, Human CLEC12A-His (recombinant, K244 WT); assay: SPR, two-state fit; after pH 5.0, 40C, 2 wks
[12] = molecular target: T7, mFc-hNKG2D (recombinant mFc-tagged human NKG2D dimer) (human, UniProt P26718 73-216); assay: SPR 37C, mFc-hNKG2D captured, 1:1 kinetic fit
T7 construct: extracellular domain; Made in house; not shown: mouse Fc tag
T7 sequence (looked up): T1 sequence (looked up)

[13] = molecular target: T6, Human CLEC12A-His (recombinant, K244 WT); assay: SPR, two-state fit (kd1); after pH 8, 40C, 2 wks
[14] = molecular target: T6, Human CLEC12A-His (recombinant, K244 WT); assay: SPR, two-state fit (kd1); control (fully purified protein study)
[15] = molecular target: T8, recombinant human FcRn (human, UniProt P55899 24-297; P61769 21-119); assay: SPR 25C, pH 6.0, steady state; pH 6.0; first replicate
T8 construct: also called hFcRn

Kd [1]: 721 nM
Kd [2]: 1.1 nM
koff [2]: 0.00084 s⁻¹
kon [2]: 801000 M⁻¹ s⁻¹
Kd [3]: 694 nM
koff [3]: 0.125 s⁻¹
kon [3]: 180000 M⁻¹ s⁻¹
Kd [4]: 671 nM
koff [4]: 0.139 s⁻¹
kon [4]: 207000 M⁻¹ s⁻¹
Kd [5]: 762 nM
koff [5]: 0.0986 s⁻¹
kon [5]: 129000 M⁻¹ s⁻¹
B1: F3'-1602 TriNKET (bispecific antibody, human IgG1, kappa)
chain: QLQLQESGPGLVKPSETLSLTCTVSGFSLTNYGLHWIRQPPGKCLEWIGVIWSGGKTDYNPSLKSRVTISKDTSKNQFSLKLSSVQAADTAVYYCAKYDYDDSLDYWGQGTLVTVSSGGGGSGGGGSGGGGSGGGGSDIQMTQSPSSLSASVGDRVTITCHASQNINFWLSWYQQKPGKAPKLLIYEASNLHTGVPSRFSGSGSGTRFTLTISSLQPEDIATYYCQQSHSYPLTFGCGTKLEIKGSDKTHTCPPCPAPELLGGPSVFLFPPKPKDTLMISRTPEVTCVVVDVSHEDPEVKFNWYVDGVEVHNAKTKPREEQYNSTYRVVSVLTVLHQDWLNGKEYKCKVSNKALPAPIEKTISKAKGQPREPRVYTLPPCRDELTKNQVSLTCLVKGFYPSDIAVEWESNGQPENNYKTTPPVLVSDGSFTLYSKLTVDKSRWQQGNVFSCSVMHEALHNHYTQKSLSLSPG
heavy: EVQLVESGGGLVKPGGSLRLSCAASGFTFSSYSMNWVRQAPGKGLEWVSSISSSSSYIYYADSVKGRFTISRDNAKNSLYLQMNSLRAEDTAVYYCARGAPIGAAAGWFDPWGQGTLVTVSSASTKGPSVFPLAPSSKSTSGGTAALGCLVKDYFPEPVTVSWNSGALTSGVHTFPAVLQSSGLYSLSSVVTVPSSSLGTQTYICNVNHKPSNTKVDKKVEPKSCDKTHTCPPCPAPELLGGPSVFLFPPKPKDTLMISRTPEVTCVVVDVSHEDPEVKFNWYVDGVEVHNAKTKPREEQYNSTYRVVSVLTVLHQDWLNGKEYKCKVSNKALPAPIEKTISKAKGQPREPQVCTLPPSRDELTENQVSLTCLVKGFYPSDIAVEWESNGQPENNYKTTPPVLDSDGSFFLYSWLTVDKSRWQQGNVFSCSVMHEALHNHYTQKSLSLSPG
light: DIQMTQSPSSVSASVGDRVTITCRASQGISSWLAWYQQKPGKAPKLLIYAASSLQSGVPSRFSGSGSGTDFTLTISSLQPEDFATYYCQQGVSFPRTFGGGTKVEIKRTVAAPSVFIFPPSDEQLKSGTASVVCLLNNFYPREAKVQWKVDNALQSGNSQESVTEQDSKDSTYSLSSTLTLSKADYEKHKVYACEVTHQGLSSPVTKSFNRGEC
notes: Trispecific F3' format: CLEC12A scFv-Fc paired with NKG2D Fab-Fc; Stressed and control samples of the stability studies are the same molecule; also called AB0237

Kd [6]: 612 nM
koff [6]: 0.119 s⁻¹
kon [6]: 195000 M⁻¹ s⁻¹
Kd [7]: 162 nM
koff [7]: 0.0192 s⁻¹
kon [7]: 119000 M⁻¹ s⁻¹
B2: AB0192 TriNKET (other)
chain: EVQLVESGGGVVQPGGSLRLSCAASGFTFNAFGMHWVRQAPGKCLEWVAFISSGSTSIYYANTVKGRFTISRDNSKNTLYLQMNSLRAEDTAVYYCARDGYPTGGAMDYWGQGTSVTVSSGGGGSGGGGSGGGGSGGGGSDIQMTQSPSSLSASVGDRVTITCKASQDIYNYLSWFQQKPGKAPKPLIYRANILVSGVPSRFSGSGSGQDYTFTISSLQPEDIATYYCLQFDAFPFTFGCGTKLEIKGSDKTHTCPPCPAPELLGGPSVFLFPPKPKDTLMISRTPEVTCVVVDVSHEDPEVKFNWYVDGVEVHNAKTKPREEQYNSTYRVVSVLTVLHQDWLNGKEYKCKVSNKALPAPIEKTISKAKGQPREPRVYTLPPCRDELTKNQVSLTCLVKGFYPSDIAVEWESNGQPENNYKTTPPVLVSDGSFTLYSKLTVDKSRWQQGNVFSCSVMHEALHNHYTQKSLSLSPG
heavy: B1 heavy
light: B1 light
notes: the condition stands under assay; also called AB0192 Lot AB0192-005

kon [9]: 1.01e+07 M⁻¹ s⁻¹
kon [10]: 1.63e+07 M⁻¹ s⁻¹
Kd [11]: 1 nM
Kd [12]: 872 nM and 892 nM and 880 nM
koff [12]: 0.141 s⁻¹ and 0.142 s⁻¹ and 0.146 s⁻¹
kon [12]: 161000 M⁻¹ s⁻¹ and 159000 M⁻¹ s⁻¹ and 166000 M⁻¹ s⁻¹
koff [13]: 0.049 s⁻¹
koff [14]: 0.0272 s⁻¹
B3: AB0089 TriNKET (bispecific antibody, human IgG1, kappa)
chain: B1 chain with S53V, K56A, K71V, Y98G, D101G, S103T, R207D, I220F
heavy: B1 heavy
light: B1 light
notes: F3' format heterodimer of three chains; human IgG1 Fc with EW-RVT and Y349C/S354C mutations; also called AB0089 Lot AB0089-002; CLEC12A TriNKET AB0089
EC50, KHYG-1-CD16aV cytotoxicity assay; after 4 wks 40C in HST pH 6.0 [8]: 0.17 nM
EC50, KHYG-1-CD16aV cytotoxicity assay; control sample [8]: 0.16 nM

Kd [15]: 1300 nM
B4: F3'-1602 TriNKET (other)
chain: B1 chain
heavy: B1 heavy
light: B1 light
notes: CLEC12A scFv-Fc, NKG2D A49MI Fab-Fc, human IgG1 Fc; also called AB0237
